# Laboratory results as given in patent US9326950B2, “Self-assembling nanoparticles composed of transmembrane peptides and their application for specific intra-tumor delivery of anti-cancer drugs” (The United States of America, as represented by the …, priority 2006, dated 2016).
# Where no end group is shown, it is not given here.
# Key:
# [1] = Fluorescence energy transfer between WMC77 and Alexa 546-labeled nanoparticles; assay type: physicochemical; details: WMC77 final concentration 300 nM
# [2] = Multi-angle light scattering, molecular weight of peptide aggregates and degree of aggregation; assay type: physicochemical; details: for MW (g/mol): 0.1 M Tris-HCl pH 7.2
# Method: To determine the influence of hydrophilic tail length on nanoparticle aggregation, the degree of aggregation was determined by multi-angle light scattering for TM peptides with the amino acid sequences of SEQ ID NO: 1; SEQ ID NO: 1-PEG11; SEQ ID NO: 1-PEG27; SEQ ID NO: 1-PEG38; and SEQ ID NO: 1-GGGGG.
# The peptides were dissolved in DMSO and diluted with 0.1 M Tris-HCl buffer (pH 7.2) to provide 0.4 mg/ml peptide solutions. This was used for further dilutions. The final concentration of DMSO was either 2.5% or 1.25% (kept constant for all dilutions in the series). The samples were sonicated at maximum intensity for 10 minutes and left at room temperature overnight (about 20 hours before measurements). The following day, the samples were centrifuged at 13200 rpm for 30 minutes.
# Light scattering (LS) studies were performed by a DAWN EOS multi-angle detector (Wyatt Technology Corp., Santa Barbara, Calif.) at a laser wavelength of 690 nm. The LS detector was connected with an Agilent 1100 HPLC system (Agilent Technologies, Palo Alto, Calif.). The MALS detector was calibrated with HPLC grade toluene, 99.8% (Aldrich Chemicals, Milwaukee, Wis.), which was filtered through a […] Anotop-25 inorganic membrane filter and then normalized with albumin (bovine) 98% monomer (Sigma Chemicals, St. Louis, Mo.). The data were collected and processed using Astra software (Wyatt Technology Corp.; version 4.90.04).
# To determine the molecular weight of the peptide aggregates and the aggregation state, LS micro-batch measurements were performed. In brief, solvent was delivered through the HPLC system, bypassing the column compartment, at a flow rate of 0.05 ml/min. 900 μl samples with different peptide concentrations were injected through the HPLC autosampler. Four peptide concentrations were analyzed (i.e., 0.05 mg/ml, 0.1 mg/ml, 0.2 mg/ml, and 0.4 mg/ml). The concentrations were determined from weight measurements, since strong light scattering made traditional UV-absorbance determination inaccurate. The LS signal was collected for each concentration. Molecular weight was determined for each concentration separately using Astra software with a Debye plot and the Zimm equation. A single slice of collected signal giving the smallest error was chosen for molecular weight calculation at each concentration.
# [3] = Transmission electron microscopy of peptide nanoparticles; assay type: physicochemical; details: negative charges replaced by positive charges
# Method: Peptides were solubilized in DMSO to yield 32 mg/ml solution. DMSO stocks were diluted with phosphate buffered saline (PBS) to produce 0.05-0.5 mg/ml solutions. Two μl of a sample were applied directly on microscopy grids, air-dried, stained with 0.5% (w/v) osmium tetroxide (OsO4), and visualized with a Hitachi H-7000 electron microscope.
# [4] = WMC77 fluorescence emission with increasing amounts of nanoparticles; assay type: physicochemical; details: increasing amounts of the nanoparticles
# Method: FIG. 1 is a graph of fluorescence emission intensity (a.u.) versus concentration (mg/ml) of nanoparticles comprising SEQ ID NO: 1-PEG11 (represented by circles) or SEQ ID NO: 1-PEG38 (represented by open squares).
# FIG. 2 is a graph of wavelength maximum (nm) versus concentration (μM) of nanoparticles comprising SEQ ID NO: 1-PEG11 (represented by circles) or SEQ ID NO: 1-PEG38 (represented by open squares).
# Various amounts of nanoparticles (SEQ ID NO:1-PEG11 or SEQ ID NO 1-PEG38) were added to solutions of WMC77. The fluorescence emission intensity and shift in emission maxima were measured with the results depicted in FIGS. 1 and 2.
# [5] = test system: MDA-MB-231 breast cancer cells; test: Survival in mouse model of breast cancer lung metastasis; assay type: in vivo, nude mice
# Method: FIG. 3 is a graph of percent survival (%) versus days on treatment for three groups of nude mice intravenously injected with one million MDA-MB-231 breast cancer cells. On the day following the intravenous injection with the breast cancer cells and continuing twice weekly, the mice were intraperitoneally injected with (1) PBS only (Control); (2) 3 mg/kg of nanoparticles of SEQ ID NO: 1-PEG27 dissolved in PBS (X4-4-6, 3 mg/kg); or (3) 12 mg/kg of nanoparticles of SEQ ID NO: 1-PEG27 dissolved in PBS (X4-4-6, 12 mg/kg).
# One million MDA-MB-231 breast cancer cells were injected in nude mice intraveneously on Day 0. On Day 1 and continuing twice weekly, mice were intraperitoneally injected with (1) 3 mg/kg of nanoparticles of the TM peptide of SEQ ID NO: 1-PEG27 dissolved in PBS; (2) 12 mg/kg of nanoparticles of the TM peptide of SEQ ID NO: 1-PEG27 dissolved in PBS; or (3) a control (PBS only).
# [6] = test system: MDA-231 breast cancer cells; details: mouse, in vivo
# Method: A CXCR4-TM domain 2-derived pegylated peptide labeled with Alexa546 fluorescent dye was prepared. […] Ten μl of peptide were diluted with 630 μl PBS (to produce 2 mg/ml peptide solution), sonicated for 10 minutes, and used for intratumoral injection.
# Nude mice were inoculated in a breast pad with one million MDA-231 breast cancer cells. Six weeks later, when tumor sizes reached about 5 mm in diameter, 0.1 ml of 2 mg/ml solution of the fluorescent nanoparticles in PBS were injected into a breast pad near the tumor.
# Whole animals and excised tumors were imaged utilizing the Maestro 420 In-Vivo Spectral Imaging System (Cambridge Resources and Instrumentation, Inc.).
# [7] = aggregate MW at 0.05 mg/ml peptide
# [8] = aggregate MW at 0.1 mg/ml peptide
# [9] = aggregate MW at 0.2 mg/ml peptide
# [10] = aggregate MW at 0.4 mg/ml peptide
# [11] = 3 mg/kg intraperitoneally twice weekly
# [12] = 12 mg/kg intraperitoneally twice weekly
Compound,"N, degree of aggregation (molecules per particle) ([2]; 0.05 mg/ml peptide)","N, degree of aggregation (molecules per particle) ([2]; 0.1 mg/ml peptide)","N, degree of aggregation (molecules per particle) ([2]; 0.2 mg/ml peptide)","MW (g/mol) [2, 7]","MW (g/mol) [2, 8]","MW (g/mol) [2, 9]","N, degree of aggregation (molecules per particle) ([2]; 0.4 mg/ml peptide)","MW (g/mol) [2, 10]",further results
"NCCCN1CCN(CCCNc2ccc3ncn4c5ccccc5c(=O)c2c34)CC1 [WMC77, 5-{3-[4-(aminopropyl)-piperazin-1-yl]-propylamino}-2,10b-diaza-aceanthrylen-6-one, reference compound]",,,,,,,,,Fluorescence Intensity (a.u.) of WMC77 solutions ([1]; No TM peptide): 622 a.u.
LLFVITLPFWAVDAVANWYFGNDD [SEQ ID NO: 1],4090,2478,2494,"11,400,000 ± 40,000 g/mol","6,906,000 ± 22,000 g/mol","6,952,000 ± 22,000 g/mol",,,
LLFVITLPFWAVDAVANWYFGNKK [SEQ ID NO: 6],,,,,,,,,particle size and uniformity [3]: much large particles with highly variable diameters
SEQ ID NO: 1-GGGGG: TM peptide of SEQ ID NO: 1 with polyglycine tail GGGGG (LLFVITLPFWAVDAVANWYFGNDD; C-terminal GGGGG tail),1614,664,282,"4,957,000 ± 8,000 g/mol","2,041,000 ± 4,000 g/mol","865,600 ± 2,700 g/mol",55,"169,700 ± 300 g/mol",
SEQ ID NO: 1-PEG11: TM peptide of SEQ ID NO: 1 with hydrophilic oligomer PEG11 added (LLFVITLPFWAVDAVANWYFGNDD; not fully specified; also: PEG11 added),743,316,137,"2,515,000 ± 69,000 g/mol","1,069,000 ± 20,000 g/mol","463,800 ± 6,800 g/mol",54,"183,200 ± 900 g/mol",emission maxima of WMC77 [4]: a shift in emission maxima; fluorescence emission intensity of WMC77 [4]: an increase in fluorescence emission intensity
SEQ ID NO: 1-PEG27: TM peptide of SEQ ID NO: 1 with hydrophilic oligomer PEG27 added; CXCR4 peptide nanoparticles (LLFVITLPFWAVDAVANWYFGNDD; not fully specified; also: PEG27 added),286,176,167,"1,171,000 ± 190,000 g/mol","719,400 ± 100,700 g/mol","682,000 ± 105,000 g/mol",90,"367,100 ± 38,400 g/mol","survival by Day 75 [5, 11]: about 40%; survival by Day 91 [5, 11]: no surviving animals; body weight [5, 12]: continued to gain weight; survival by Day 75 [5, 12]: 100%; survival until the end of the experiment (Day 140) [5, 12]: a significant number of the animals administered 12 mg/kg of nanoparticles survived"
"SEQ ID NO: 1-PEG38: TM peptide of SEQ ID NO: 1 with PEG38, obtained by sequential coupling of PEG11 and PEG27 (LLFVITLPFWAVDAVANWYFGNDD; also: PEG38 added (PEG11 + PEG27))",,93,19,,"436,100 ± 20,300 g/mol","90,950 ± 9,210 g/mol",24,"110,500 ± 5,600 g/mol",emission maxima of WMC77 [4]: a shift in emission maxima; fluorescence emission intensity of WMC77 [4]: an increase in fluorescence emission intensity
"SEQ ID NO: 8-PEG27: deletion mutant lacking the five N-terminal amino acid residues of SEQ ID NO: 1, with PEG27 (TLPFWAVDAVANWYFGNDD; not fully specified; also: PEG27 added)",,9,10,,"29,550 ± 4,630 g/mol","32,660 ± 6,730 g/mol",10,"34,520 ± 7,850 g/mol",
"TM peptide-Alexa conjugate: CXCR4-TM domain 2-derived pegylated peptide SEQ ID NO: 1-Peg11-Hcy-Peg27 labeled with Alexa546 fluorescent dye (LLFVITLPFWAVDAVANWYFGNDD; also: Peg11-Hcy-Peg27 attached, Alexa546 label)",,,,,,,,,Fluorescence Intensity (a.u.) of WMC77 solutions ([1]; with additive): 295 a.u.; penetration of tumor vasculature [6]: effectively penetrate tumor vasculature
